Assay results as given in publication PMC4535883, “A Single-Strand Annealing Protein Clamps DNA to Detect and Secure Homology”.

Experiments:
[1] = molecular target: T1, Redβ (single-strand annealing protein) (bacteriophage lambda, UniProt P03698 1-261); test: CD; filament formed by Redβ annealing; CD shift at 210-220 nm; Buffer composition not in the material; optical tweezers at 29.2 °C; details: protein: recombinant; tags: StrepII (stated for the purified protein used as western blot standard); blunt; strands annealed by Redβ
T1 sequence: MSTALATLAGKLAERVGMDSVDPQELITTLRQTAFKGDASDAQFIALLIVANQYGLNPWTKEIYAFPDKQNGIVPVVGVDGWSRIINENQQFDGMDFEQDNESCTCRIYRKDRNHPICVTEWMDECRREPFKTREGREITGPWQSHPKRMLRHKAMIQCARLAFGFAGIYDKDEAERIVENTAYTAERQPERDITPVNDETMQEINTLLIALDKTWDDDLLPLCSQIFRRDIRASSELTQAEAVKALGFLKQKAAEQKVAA

[2] = molecular target: T1, Redβ (single-strand annealing protein); test: optical tweezers; preassembled filament, 750 nM Redβ; >20% of traces >100 pN; Buffer composition not in the material; optical tweezers at 29.2 °C; details: protein: recombinant; tags: StrepII (stated for the purified protein used as western blot standard); 25 bp duplex, ssDNA spacers on both sides
[3] = molecular target: T1, Redβ (single-strand annealing protein); test: optical tweezers; preassembled filament; unzipping forces >200 pN, step 10 ± 2 bp; Buffer composition not in the material; optical tweezers at 29.2 °C; details: protein: recombinant; tags: StrepII (stated for the purified protein used as western blot standard); 123 bp duplex, ssDNA spacers on both sides
[4] = molecular target: T1, Redβ (single-strand annealing protein); test: FCS/FCCS; effective KEpstein for 30-b ssDNA, calculated as Kd/21; Buffer composition not in the material; optical tweezers at 29.2 °C; details: protein: recombinant; tags: StrepII (stated for the purified protein used as western blot standard); label: Atto 655 (5')
[5] = molecular target: T1, Redβ (single-strand annealing protein); test: FCCS; half of ssDNA bound; about 30% bound at 100 nM; Hill coefficient close to 1; Buffer composition not in the material; optical tweezers at 29.2 °C; details: protein: recombinant; tags: StrepII (stated for the purified protein used as western blot standard); label: Atto 655 (5')
[6] = molecular target: T1, Redβ (single-strand annealing protein); test: FCS/FCCS; per single binding site of Redβ monomer; global fit of isodesmic growth model; Buffer composition not in the material; optical tweezers at 29.2 °C; details: protein: recombinant; tags: StrepII (stated for the purified protein used as western blot standard); label: Atto 655 (5')

B1: CD 44-mer pair ssDNACD(1)+(2) (dsDNA)
DNA 1: GTAGAGTATAAGCACAGAGAGGATAGAGAACAATGGAGCGGGTGT
DNA 2: ACACCCGCTCCATTGTTCTCTATCCTCTCTGTGCTTATACTCTAC
[1]
  binding result: binds

B2: 25 bp high-force unzipping linker (dsDNA)
DNA 1: TGTTTAGTATGAGTCGAAATTCTTACGGCGTGTCAGAGAGGC
DNA 2: TGACAGGAAACAGCACGCCAGCCTCTCTGACACGCCGTAAGAATTCGATAGGCAGCAGATTCTCTTTTCACCTTC
modifications: 5' phosphate on overhang A
[2]
  binding result: binds

B3: 123 bp high-force unzipping linker (dsDNA)
DNA 1: TGTTTAGTATGAGTCGAAATTCTTACGGCGTGTCAGAGAGGCAATGGCTTGACTTGTGGTGGATCACAGTTTGTGAGTAACGGCAAGATGCGGTAAACACTGTAATGCGAGCTTCATTGACTCGGCTTAAAGTTCCTGGT
DNA 2: TGACAGGAAACAGCACGCCAACCAGGAACTTTAAGCCGAGTCAATGAAGCTCGCATTACAGTGTTTACCGCATCTTGCCGTTACTCACAAACTGTGATCCACCACAAGTCAAGCCATTGCCTCTCTGACACGCCGTAAGAATTCGATAGGCAGCAGATTCTCTTTTCACCTTC
modifications: 5' phosphate on overhang A
[3]
  binding result: binds

B4: ssDNA FCS 30 b (ssDNA)
DNA: ATGCCTCTCACTCGTCATCTTGTTTAGTAT
[4]
  Kd: ~240 nM
[5]
  apparent K (half saturation): ~300 nM
[6]
  Kd: 5000 ± 200 nM
